Laboratory results reported in publication doi:10.1101/327866 (bioRxiv, 2018).
Substitutions are numbered along the chain they refer to.

B1: PA13P1H08 variant: heavy chain reverted to the inferred naive rearrangement, native light chain (antibody, V domains shown)
VH: QVQLVESGGGVVQPGRSLRLSCAASGFTFSSYGMHWVRQAPGKGLEWVAVISYDGSNKYYADSVKGRFTISRDNSKNTLYLQMNSLRAEDTAVYYCAKVLDYSNYYYYYGMDVWGQGTTVTVSS
VL: EIVLTQSPGTLSLSPGGRGTLSCRTSQTINNAHLAWYQHKPGQAPRLLIYGSSERATGVPDRFSGSGSGSDFTLTISSLEAEDFAVYYCQHYGRSPPYTFGPGTKLDIK
B2: PA13P1H08 variant: only the heavy chain CDR2 reverted to the inferred naive rearrangement, native light chain (antibody, V domains shown)
VH: QVQLVNSGGGVVQPGRSLRLSCVASGFTFSTFGIHWVRQAPGKGLEWVAVISYDGSNKESADSVKGRFTPSRDNSKNTVYLQMNNLRVEDTAVYYCAKVLDYSRYSYYYGMDVWGQGTTVIVSS
VL: B1 VL
B3: PA13P1H08 variant: only the heavy chain CDR3 reverted to the inferred naive rearrangement, native light chain (antibody, V domains shown)
VH: B2 VH with Y53N, S56E, N57K, K58S, R104N, S106Y
VL: B1 VL
B4: PA13P1H08 variant: only the heavy chain framework regions reverted to the inferred naive rearrangement, native light chain (antibody, V domains shown)
VH: B1 VH with S31T, Y32F, Y53N, S56E, N57K, K58S, N104R, Y106S
VL: B1 VL
B5: PA13P1H08 variant: only the heavy chain CDR1 reverted to the inferred naive rearrangement, native light chain (antibody, V domains shown)
VH: B2 VH with T31S, F32Y, Y53N, S56E, N57K, K58S
VL: B1 VL

molecular target: Ara h 2, purified natural peanut allergen (Arachis hypogaea (peanut), cultivar not …, UniProt Q6PSU2); assay: BLI

Binding result, binds:
B1, B2, B3, B4, B5

molecular target: Ara h 3, purified natural peanut allergen (Arachis hypogaea (peanut), cultivar not …, UniProt O82580); assay: BLI

Binding result, binds:
B1, B2, B3, B4, B5
